According to the supplement of paper PMC10567573:

B1: MYBL2 (parent)
chain: FPNRTDQQCQYRWLRVLNPDLVKG

Variants of: B1
Assay: protein stability index of a GFP-peptide fusion (GPS, HEK-293T) (PSI 1-6); higher = more stable
Conditions: c terminus: a fixed tail appended
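Note: lentivirally expressed fusions sorted by FACS into six bins by GFP to DsRed ratio, PSI derived from sequencing read proportions per bin multiplied by bin number.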

Protein stability index: each site, then its substitutions
Q10: V 1.81 | Y 1.79 | T 1.93 | W 2.4
G24: D 1.94 | H 1.41 | R 1.74 | I 1.43 | E 2.02 | C 1.89 | P 2.26 | V 1.71 | Y 1.85 | A 1.41 | N 2.44 | Q 1.91 | S 1.68 | M 2.18 | L 2.35 | T 1.87 | W 1.55 | K 2.01 | F 1.85
P19: D 1.97 | H 2.22 | E 1.85 | K 2.36 | S 2.06 | T 1.67 | Y 2.02 | N 2.01 | A 1.81 | C 2.5 | V 1.94 | W 1.63 | L 1.76 | R 1.84 | G 2.26 | I 2.11 | M 2.2 | F 1.45 | Q 1.94
R15: M 1 | D 2.48 | V 2.2 | N 1.52 | C 2.19 | P 1.92 | T 1.45 | F 2.36 | Y 2.14 | I 2.25 | W 2.96 | E 2.44 | Q 2.15 | G 2.18 | L 1.98 | A 1.45 | K 1.31 | H 2.31 | S 2
K23: E 1.89 | T 1.59 | L 1.64 | F 2.47 | V 1.4 | A 1.22 | D 1.97 | P 2.06 | W 1.27 | H 1.7 | M 1.5 | C 3.33 | S 1.26 | Q 2.1 | N 2.11 | R 2.21 | I 1.95 | G 1.8 | Y 1.38
L21: K 2.01 | V 2.26 | E 2.43 | R 2.31 | M 2.27 | I 2.85 | N 2.37 | S 2.17 | Y 1.98 | W 1.91 | A 1.88 | G 1.66 | F 2.26 | D 2.12 | Q 2.08 | H 1.48 | C 2.18 | P 2.83 | T 2.26
R12: L 1.45 | N 1.69 | A 2.75 | K 2.25 | T 1.66 | I 1.97 | H 3.76 | W 1.95 | Y 2.46 | G 1.59 | E 1.74 | C 2.55 | S 2.25 | P 1.96 | D 1.19 | M 1.96 | Q 2.21 | F 2.25
L14: T 1.64 | E 2.28 | F 1.51 | R 2.44 | N 2.46 | I 2.03 | C 2.02 | P 2.05 | H 2.67 | A 3.17 | G 1.48 | Y 1.83 | Q 2.08 | S 2.35 | W 1.4 | K 2.88 | M 2.12 | D 2.22 | V 2.21
N18: F 2.73 | C 2.8 | T 2.19 | E 2.16 | I 1.09 | D 2.09 | P 1.98 | Q 1.97 | G 1.6 | K 1.68 | M 1.75 | Y 2.16 | W 2.05 | R 3.02 | V 1.61 | A 2.17 | S 2.17 | L 2.74
W13: N 2.81 | G 3.56 | A 2.59 | L 2.08 | P 3.71 | Q 3.1 | K 3.05 | V 2.39 | D 2.98 | M 2.27 | C 2.01 | E 3.26 | H 2.56
